In this assay the target is T1, nsp10/16 complex (heterodimer of SARS-CoV-2 nsp10 and nsp16) (SARS-CoV-2, UniProt P0DTD1).
T1 construct: also called nsp10/nsp16; nsp10/16 heterodimer
Description: MST. The conditions noted are these: both partners purified.

Our source for the Kd values is paper PMC11194070, “Despite the odds: formation of the SARS-CoV-2 methylation complex” (Nucleic Acids Research, 2024).

B1: nsp14ExoN, nsp14 without the methyltransferase domain but retaining the exonuclease activity (domain or fragment)
chain: AENVTGLFKDCSKVITGLHPTQAPTHLSVDTKFKTEGLCVDIPGIPKDMTYRRLISMMGFKMNYQVNGYPNMFITREEAIRHVRAWIGFDVEGCHATREAVGTNLPLQLGFSTGVNLVAVPTGYVDTPNNTDFSRVSAKPPPGDQFKHLIPLMYKGLPWNVVRIKIVQMLSDTLKNLSDRVVFVLWAHGFELTSMKYFVKIGPERTCCLCDRRATCFSTASDTYACWHHSIGFDYVYNPFMIDVQQWGFTGNLQSNHDLYCQVHGNAHVASCDAIMTRCLAVHECFVKRVDWTIE
As for B1, binding was characterised by a dissociation constant (Kd) of 110 ± 130 nM.
